Target: the molecule itself
Assay: SDS/PAGE with western blotting

B1: Pho89–Myc-His6 (full-length recombinant Saccharomyces cerevisiae high-affinity phosphate transporter Pho89 fusion protein) (natural protein, S. cerevisiae, UniProt P38361 1-574, looked up)
chain: MALHQFDYIFAIAMLFAFLDAFNIGANDVANSFASSISSRSLKYWQAMVLAGLCEFLGAVLAGARVSGTIKNNIIDSSIFTNDPAVLMLTMTSALIGSSCWLTFATAIGMPVSTTHSIVGGTIGAGIAAGGANGVVWGWSGVSQIIASWFIAPILAGAIAAIVFSISRFSVLEVKSLERSIKNALLLVGVLVFATFSILTMLIVWKGSPNLHLDDLSETETAVSIVLTGAIASIVYFIFFYPFYRRKVLDQDWTLKLIDIFRGPSFYFKSTDDIPPMPEGHQLTIDYYEGRRNLGTTVSVEDEENKAASNSNDSVKNKEDIQEVDLVRTETEPETKLSTKQYWWSLLKQGPKKWPLLFWLVISHGWTQDVIHAQVNDRDMLSGDLKGMYERSKFYDNRVEYIYSVLQAITAATMSFAHGANDVANATGPLSAVYVIWKTNTIGAKSEVPVWVLAYGGVALVIGCWTYGYNIIKNLGNKMILQSPSRGFSIELAVAITTVMATQLGIPTSTTQIAVGGIVAVGLCNKDLKSVNWRMVAWCYSGWFLTLPIAGLIAGIINGIILNAPRFGVEYQMT
Q: Does B1 bind?
A: binds
